# Earlier results, collected in PMC3325482.
# Molecular target: Cd200R (Rattus norvegicus) (UniProt Q9ES58)
# Sequence of UniProt Q9ES58 (Q9ES58 24-239): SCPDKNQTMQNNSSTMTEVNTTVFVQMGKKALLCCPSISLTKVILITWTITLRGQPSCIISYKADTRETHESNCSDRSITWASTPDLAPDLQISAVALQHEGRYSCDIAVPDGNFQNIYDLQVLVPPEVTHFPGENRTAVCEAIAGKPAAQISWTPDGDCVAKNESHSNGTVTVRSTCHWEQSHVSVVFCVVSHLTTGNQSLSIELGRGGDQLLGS
substance,measurement,value
Cd200 (from UniProt P04218),Kd,2000 nM
